Reference: article PMC6820745, “Structural and thermodynamic basis for the recognition of the substrate-binding cleft on hen egg lysozyme by a single-domain antibody” (Scientific Reports, 2019)
Each block holds one binder with its values, some of them ahead of it.

Legend:
hen egg lysozyme (hen) [1] = molecular target: hen egg lysozyme (hen) (UniProt P00698); assay: ITC; iTC200; 25 °C; PBS; VHH (10 uM) in the cell titrated with HEL (100 uM); 1:1 binding model
hen egg lysozyme (hen) [2] = molecular target: hen egg lysozyme (hen) (UniProt P00698); assay: SPR; as a1, but KD from the responses in equilibrium (Scatchard plot, 1:1 model); HEL immobilised; 25 °C; PBS with 0.005% Tween 20
hen egg lysozyme [3] = molecular target: T1, hen egg lysozyme (hen, UniProt P00698 19-147); assay: ITC; iTC200, 25 °C, PBS; VHH (10 µM) in the cell titrated with HEL (100 µM); 1:1 binding model; two independent measurements; settings: both partners purified
T1 construct: hen egg lysozyme (HEL), bought, used without further purification; also called HEL; source: bought: Wako Pure Chemical (Cat. No. 126-02671)

hen egg lysozyme (hen) [4] = molecular target: hen egg lysozyme (hen) (UniProt P00698); assay: SPR; Biacore T200; HEL immobilised on CM5 chip (200 RU); VHH flowed over; 25 °C; PBS with 0.005% Tween 20; global fit to a 1:1 binding model
hen egg lysozyme [5] = molecular target: T1, hen egg lysozyme; assay: SPR; HEL immobilised on CM5 chip (200 RU), VHH flowed over, multi-cycle, 10 °C, PBS with 0.005% Tween 20, global fit to a 1:1 binding model; settings: both partners purified
hen egg lysozyme [6] = molecular target: T1, hen egg lysozyme; assay: SPR; HEL immobilised on CM5 chip (200 RU), VHH flowed over, multi-cycle, 14 °C, PBS with 0.005% Tween 20, global fit to a 1:1 binding model; settings: both partners purified
hen egg lysozyme [7] = molecular target: T1, hen egg lysozyme; assay: SPR; HEL immobilised on CM5 chip (200 RU), VHH flowed over, multi-cycle, 18 °C, PBS with 0.005% Tween 20, global fit to a 1:1 binding model; settings: both partners purified
hen egg lysozyme [8] = molecular target: T1, hen egg lysozyme; assay: SPR; HEL immobilised on CM5 chip (200 RU), VHH flowed over, multi-cycle, 22 °C, PBS with 0.005% Tween 20, global fit to a 1:1 binding model; settings: both partners purified
hen egg lysozyme [9] = molecular target: T1, hen egg lysozyme; assay: SPR; HEL immobilised on CM5 chip (200 RU), VHH flowed over, multi-cycle, 26 °C, PBS with 0.005% Tween 20, global fit to a 1:1 binding model; settings: both partners purified
hen egg lysozyme [10] = molecular target: T1, hen egg lysozyme; assay: SPR; HEL immobilised on CM5 chip (200 RU), VHH flowed over, 10 °C, PBS with 0.005% Tween 20, steady-state responses (Scatchard plot), 1:1 binding model; settings: both partners purified
hen egg lysozyme [11] = molecular target: T1, hen egg lysozyme; assay: SPR; HEL immobilised on CM5 chip (200 RU), VHH flowed over, 14 °C, PBS with 0.005% Tween 20, steady-state responses (Scatchard plot), 1:1 binding model; settings: both partners purified
hen egg lysozyme [12] = molecular target: T1, hen egg lysozyme; assay: SPR; HEL immobilised on CM5 chip (200 RU), VHH flowed over, 18 °C, PBS with 0.005% Tween 20, steady-state responses (Scatchard plot), 1:1 binding model; settings: both partners purified
hen egg lysozyme [13] = molecular target: T1, hen egg lysozyme; assay: SPR; HEL immobilised on CM5 chip (200 RU), VHH flowed over, 22 °C, PBS with 0.005% Tween 20, steady-state responses (Scatchard plot), 1:1 binding model; settings: both partners purified
hen egg lysozyme [14] = molecular target: T1, hen egg lysozyme; assay: SPR; HEL immobilised on CM5 chip (200 RU), VHH flowed over, 26 °C, PBS with 0.005% Tween 20, steady-state responses (Scatchard plot), 1:1 binding model; settings: both partners purified
hen egg lysozyme [15] = molecular target: T1, hen egg lysozyme; assay: SPR; HEL immobilised on CM5 chip (200 RU), VHH flowed over, 30 °C, PBS with 0.005% Tween 20, steady-state responses (Scatchard plot), 1:1 binding model; settings: both partners purified
hen egg lysozyme (hen) [16] = molecular target: hen egg lysozyme (hen) (UniProt P00698); assay: SPR; HEL immobilised; measured at several temperatures; van't Hoff analysis (non-linear regression); PBS with 0.005% Tween 20; KD given for 25 °C from the van't Hoff free energy
hen egg lysozyme [17] = molecular target: T2, hen egg lysozyme (Gallus gallus (hen), UniProt P00698); assay: ITC; iTC200; 25 °C; PBS; VHH (10 uM) in the cell titrated with HEL (100 uM); 1:1 binding model; settings: both partners purified
T2 construct: hen egg lysozyme (lysozyme C), bought from Wako Pure Chemical; also called HEL; source: bought: Wako Pure Chemical (Cat. No. 126-02671), used without further purification

hen egg lysozyme [18] = molecular target: T2, hen egg lysozyme; assay: SPR; as a1, but KD from the responses in equilibrium (Scatchard plot, 1:1 model); HEL immobilised; 25 °C; PBS with 0.005% Tween 20; settings: both partners purified
hen egg lysozyme [19] = molecular target: T2, hen egg lysozyme; assay: SPR; Biacore T200; HEL immobilised on CM5 chip (200 RU); VHH flowed over; 25 °C; PBS with 0.005% Tween 20; global fit to a 1:1 binding model; settings: both partners purified
Procedure, shortened: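 Binding of the His6-tagged single-domain antibody, expressed in E. coli BL21(DE3) and purified by Ni-NTA and size-exclusion chromatography, was measured by surface plasmon resonance on a Biacore T200 against hen egg lysozyme immobilised on a CM5 chip (200 RU). Runs were at 25 °C in PBS with 0.005% Tween 20, with 300 s contact, 600 s dissociation and regeneration in 1.0 M Arg-HCl pH 4.4. Antibody concentrations were adjusted per mutant. Kd, kon and koff came from global fitting to a 1:1 binding model in BiaEvaluation.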

hen egg lysozyme [20] = molecular target: T2, hen egg lysozyme; assay: SPR; HEL immobilised; measured at several temperatures; van't Hoff analysis (non-linear regression); PBS with 0.005% Tween 20; KD given for 25 °C from the van't Hoff free energy; settings: both partners purified
hen egg lysozyme [21] = molecular target: T2, hen egg lysozyme; assay: as above; settings: both partners purified; remark: listed apart in the source

hen egg lysozyme (hen), sequence (P00698 19-147): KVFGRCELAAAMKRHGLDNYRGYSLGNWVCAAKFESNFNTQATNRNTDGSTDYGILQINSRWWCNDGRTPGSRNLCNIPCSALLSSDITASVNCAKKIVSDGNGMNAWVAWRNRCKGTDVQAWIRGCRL
T1 sequence (P00698 19-147): as above
T2 sequence (P00698 19-147): as above

- ddH against WT antibody (ITC) (hen egg lysozyme (hen) [1]): 4.8 kcal/mol
- Kd (hen egg lysozyme (hen) [2]): 635 nM
- Kd (hen egg lysozyme [3]): 1800 nM
- stoichiometry N (hen egg lysozyme [3]): 1.23
- Kd (hen egg lysozyme (hen) [4]): 295 nM
- koff (hen egg lysozyme (hen) [4]): 0.686 s⁻¹
- kon (hen egg lysozyme (hen) [4]): 2.32e+06 M⁻¹ s⁻¹
- Kd (hen egg lysozyme [5]): 100 nM
- koff (hen egg lysozyme [5]): 0.116 s⁻¹
- kon (hen egg lysozyme [5]): 1.15e+06 M⁻¹ s⁻¹
- Kd (hen egg lysozyme [6]): 146 nM
- koff (hen egg lysozyme [6]): 0.201 s⁻¹
- kon (hen egg lysozyme [6]): 1.38e+06 M⁻¹ s⁻¹
- Kd (hen egg lysozyme [7]): 191 nM
- koff (hen egg lysozyme [7]): 0.309 s⁻¹
- kon (hen egg lysozyme [7]): 1.62e+06 M⁻¹ s⁻¹
- Kd (hen egg lysozyme [8]): 233 nM
- koff (hen egg lysozyme [8]): 0.479 s⁻¹
- kon (hen egg lysozyme [8]): 2.06e+06 M⁻¹ s⁻¹
- Kd (hen egg lysozyme [9]): 418 nM
- koff (hen egg lysozyme [9]): 0.83 s⁻¹
- kon (hen egg lysozyme [9]): 1.99e+06 M⁻¹ s⁻¹
- Kd (hen egg lysozyme [10]): 303 ± 32 nM
- Kd (hen egg lysozyme [11]): 348 ± 42 nM
- Kd (hen egg lysozyme [12]): 429 ± 48 nM
- Kd (hen egg lysozyme [13]): 529 ± 55 nM
- Kd (hen egg lysozyme [14]): 658 ± 64 nM
- Kd (hen egg lysozyme [15]): 867 ± 70 nM
- Kd (hen egg lysozyme (hen) [16]): 413 nM
- dH (van't Hoff) (hen egg lysozyme (hen) [16]): -12 kcal/mol
B1: D3-L11 Y102A (VHH)
VHH: DVQLVESGGGSVQAGGSLRLSCAASGSTDSIEYMTWFRQAPGKAREGVAALYTHTGNTYYTDSVKGRFTISQDKAKNMAYLRMDSVKSEDTAIYTCGATRKAVPVRFALDQSSYDYWGQGTQVTVSS
notes: the substitution is still to be applied; source: E. coli BL21(DE3), purified (Ni-NTA, SEC)

- ddH against WT antibody (ITC) (hen egg lysozyme [17]): 9.1 ± 1.4 kcal/mol
- Kd (hen egg lysozyme [18]): 144 ± 22 nM
- Kd (hen egg lysozyme [19]): 46.1 nM
- koff (hen egg lysozyme [19]): 0.128 s⁻¹
- kon (hen egg lysozyme [19]): 2.77e+06 M⁻¹ s⁻¹
- Kd (hen egg lysozyme [20]): 46 ± 19 nM
- dH (van't Hoff) (hen egg lysozyme [21]): -11 kcal/mol
B2: D3-L11 Y52A (VHH)
VHH: DVQLVESGGGSVQAGGSLRLSCAASGSTDSIEYMTWFRQAPGKAREGVAALATHTGNTYYTDSVKGRFTISQDKAKNMAYLRMDSVKSEDTAIYTCGATRKYVPVRFALDQSSYDYWGQGTQVTVSS
notes: as the VHH chain of m2 with the stated change; source: E. coli BL21(DE3), purified (Ni-NTA, SEC)
